The text below walks through data of patent publication US20190284262A1 (Memorial Sloan Kettering, published 2019).

B1: Clone #24 (scFv)
scFv (VL-linker-VH-His/HA tag): QAVLTQPPSVSAAPGQKVTISCSGSSSNIGNNYVSWYQQLPGTAPKLLIYDNNKRPSGLPDRFSGSKSGTSATLGITGLQTGDEADYYCGTWDSSLNAVVFGGGTQLTVLSSRGGGGSGGGGSGGGGSLEMAQVQLVQSGAEVKKPGASVKVSCKASGYTFTNYYIHWVRQAPGQGLEWMGIIRPSGGITNYAQKFQGRVTMTRDTSTSTVYMELSSLRSEDTAVYYCARSWSNKLSWYNDGWGQGTLVTVSSTSGQAGQHHHHHHGAYPYDVPDYAS
notes: also called EXT017-24; EXT017-24 scFv phage clone
B2: Clone #23 (scFv)
scFv (VL-linker-VH-His/HA tag): SYELTQPPSVSVAPGQTAWITCGGNNIGSKSVHWYQQKPGQAPILVVYDDSDRPSGIPERVSGSNSGNTATLTISRVEAGDEADYYCQVWDSSSDRWVFGGGTKLTVLGSRGGGGSGGGGSGGGGSLEMAQMQLVQSGAEVKKPGASVKVSCKASGYTFTNYGISWVRQAPGQGLEWMGWISPYNGNTNYAQKLQGRVTMTTDTSTSTAYMELRNLRSDDTAVYYCARYWDSGYAYDEWGQGTLVTVSSTSGQAGQHHHHHHGAYPYDVPDYAS
notes: also called EXT017-23; EXT017-23 scFv phage clone
B3: EXT017-27 scFv phage clone (scFv)
scFv: QAVLTQPPSVSVAPGKTARLTCGGNNIGSESVHWYQQKPGQAPLLVVYDDDDRPSGIPERFSGSNSGNTATLTISRVEAGDEADYYCQVWDRSSDHWFFGGGTKLTVLGSRGGGGSGGGGSGGGGSLEMAQVQLVQSGAEVKKPGASVKVSCKASGYTFTNYYIHWVRQAPGQGLEWMGIIRPSGGITNYAQKFQGRVSMTRDTSTSTVYMELSSLRSEDTAVYYCARSWDYFASNDFWGQGTLVTVSSTSGQAGQHHHHHHGAYPYDVPDYAS
notes: full-length scFv with His+HA tags; also called EXT017-27 phage; phage clone #27
B4: EXT017-28 scFv phage clone (scFv)
scFv: QSVLTQPPSVSGAPGQRVTISCTGSSSNIGAGYDVHWYQQLPGTAPKLLIYGNSDRPSGVPDRFSGSKSGTSASLAITGLQAEDEADYYCQSYDSSLSGYVFGTGTKVTVLGSRGGGGSGGGGSGGGGSLEMAQMQLVQSGAEVKKPGSSVKVSCKASGGTFSTYAISWVRQAPGQGLEWMGGIIPIFGTANYAQKFQGRVTITADKSTSTAYMEVRNLRSEDTAVYYCARAEYVYGEYDQWGQGTLVTVSSTSGQAGQHHHHHHGAYPYDVPDYAS
notes: full-length scFv with His+HA tags; also called EXT017-28 phage; phage clone #28
B5: EXT017-17 scFv phage clone (scFv)
scFv: QSVLTQPPSVSGAPGQRVTISCTGSSSNIGAGYDVHWYQQLPGTAPKLLIYGNSNRPSGVPDRFSGSKSGTSASLAITGLQAEDEADYYCQSYDSSLSGYVFGTGTKVTVLGSRGGGGSGGGGSGGGGSLEMAEVQLVQSGAEVKKPGSSVKVSCKASGDTFSRYAISWVRQAPGQGLEWMGRIIPIFGTPNYAQKFQGRVTITADEFTSTAYMELSSLRSEDTAMYYCARSIYRYSEYDHWGQGTLVTVSSTSGQAGQHHHHHHGAYPYDVPDYAS
notes: fusion to the phage coat protein not described; also called EXT017-17 phage; phage clone #17
B6: EXT017-53 scFv phage clone (scFv)
scFv: NFMLTQPHSVSESPGKTVTISCTRSSGSIASHYVQWYQQRPGSSPTTVIYENNQRPSGVPDRFSGSIDSSSNSASLTISGLKTEDEADYYCQSYDRSNHVVFGGGTKLTVLGSRGGGGSGGGGSGGGGSLEMAQVQLVQSGAEVKKPGASVKVSCKASGYTFTNYYIHWVRQAPGEGLEWMGIIRPSGGNTNYAQKFQGRVTMTRDTSTRTVYMELSSLRSEDTAVYYCARSWNSRDVDSWGQGTLVTVSSTSGQAGQHHHHHHGAYPYDVPDYAS
notes: full-length scFv with His+HA tags; also called EXT017-53 phage

For one assay, the target named is T1, HLA-A*02:01 on T2 cells alone (no peptide added) (human).
T1 construct: TAP-deficient T2 cells without pulsed peptide; negative control target, and the HLA molecule whose stabilisation by peptides is read in the T2 stabilization assay; also called HLA-A*02 molecule; HLA-A2 molecule
Nature of the assay: flow cytometry, phage on T2 without peptide.
B1: the binding result is reported as “no binding”.
Take B2: the binding result was “no binding”.

The target of a further assay is T2, R3 (RHAMM-R3) peptide/HLA-A*02:01 complex on T2 cells (human).
T2 construct: Control target of the phage staining of T2 cells; also called T2 cells pulsed with R3 peptide; RHAMM 3 (R3)
Nature of the assay: flow cytometry, phage on T2 + R3 peptide; secondary only 123, unstained 99.8. Background: In flow cytometry, cells or beads pass a laser one at a time.
As for B3, the “Median:FITC-A” value is 145.
Turning to B4, the “Median:FITC-A” value is 140.
In the case of B5, the “Median:FITC-A” value came to 146.

Another assay has as its target T3, Foxp3-7 peptide/HLA-A*02:01 complex on the cell surface (human).
T3 construct: also called Foxp3-7/HLA-A2 complex
In words: flow cytometry, phage on T2 + Foxp3-7 peptide; secondary only 318, unstained 95.8.
As for B3, the “Median:FITC-A” value was found to be 1940.
Same read-out and setting: the result for B4 reads 1740.
Take B6: the “Median:FITC-A” value was determined as 1050.

The target of the next assay is T1, HLA-A*02:01 on T2 cells alone (no …). Nature of the assay: flow cytometry, phage on T2 without peptide; secondary only 320, unstained 91.4.
Turning to B3, the “Median:FITC-A” value was 355.
With B4, the “Median:FITC-A” value stood at 353.
In the case of B6, the “Median:FITC-A” value came out at 355.

A further assay shares this target. Nature of the assay: flow cytometry, phage on T2 cells.
Take B3: the binding result is reported as “no binding”.
Take B4: the binding result is listed as “no binding”.
In the case of B5, the binding result is on record as “no binding”.

A further assay shares this target. Nature of the assay: flow cytometry, phage on T2 without peptide; secondary only 121, unstained 106.
As for B3, the “Median:FITC-A” value was 150.
In the case of B4, the “Median:FITC-A” value turned out to be 144.
With B5, the “Median:FITC-A” value stood at 143.

The next assay has as its target T4, T2+EW (Homo sapiens, UniProt A*02:01).
T4 construct: on the surface of T2 cells; irrelevant control peptide; also called EW peptide/HLA-A*02:01 complex on T2 cells; T2 pulsed with EW peptide
Nature of the assay: flow cytometry, phage on T2 + EW peptide; secondary only 310, unstained 93.
On to B3, for which the “Median:FITC-A” value is 371.
As to B4, the “Median:FITC-A” value is 338.
On the same count and under the same terms, with B6 the figure was 346.

In the next assay the target is T4, T2+EW. Nature of the assay: flow cytometry, phage on T2 + EW peptide; secondary only 113, unstained 94.7.
Consider B1, for which the “Median:FITC-A” value is 141.
In the case of B5, the “Median:FITC-A” value amounted to 144.
Regarding B2, the “Median:FITC-A” value was determined as 144.

The target of the next assay is T1, HLA-A*02:01 on T2 cells alone (no …). In words: flow cytometry, phage on T2 without peptide. The source holds these as a separate data set.
Turning to B6, the binding result is given as “no binding”.

The target of the next assay is T3, Foxp3-7 peptide/HLA-A*02:01 complex on …. In words: flow cytometry, phage on T2 + Foxp3-7 peptide; secondary only 116, unstained 93.8.
For the molecule B3, the “Median:FITC-A” value was 658.
As for B4, the “Median:FITC-A” value was found to be 873.
For B5, the “Median:FITC-A” value is 745.

The next assay has the same target. In words: flow cytometry, phage on T2 + Foxp3-7 peptide; secondary only 133, unstained 103.
B1: the “Median:FITC-A” value is 1040.
The same measure, in the same setting: with B5 the figure was 1760; with B2, 982.

In a further assay the target is T5, 017-mut5 peptide (…)/HLA-A*02:01 complex on T2 cells (human).
T5 construct: Alanine mutant at position 5
Nature of the assay: flow cytometry, phage on peptide-loaded T2 cells.
B3 showed an MFI of 95.4.
B4 returned an MFI of 107.
Take B5: the MFI turned out to be 98.1.
B6 came in with an MFI of 98.5.

In the next assay the target is T6, 017-mut4 peptide (…)/HLA-A*02:01 complex on T2 cells (human).
T6 construct: Alanine mutant at position 4
Nature of the assay: flow cytometry, phage on peptide-loaded T2 cells.
The molecule B3 gave an MFI of 99.
In turn, B4 yielded an MFI of 108.
For B5, the MFI came out at 103.
Molecule B6 registered an MFI of 95.8.

The next assay addresses T7, 017-mut2 peptide (…)/HLA-A*02:01 complex on T2 cells (human).
T7 construct: Alanine mutant at position 2, the anchor position; the peptide may load poorly onto HLA-A2; also called EXT017-mut2
Nature of the assay: flow cytometry, phage on peptide-loaded T2 cells.
As to B3, the MFI stood at 98.2.
On to B4, for which the MFI was determined as 102.
The same measure, in the same setting: the result for B5 reads 99.8.
B6 showed an MFI of 95.3.

The target in another assay is T8, 017-mut9 peptide (…)/HLA-A*02:01 complex on T2 cells (human).
T8 construct: Alanine mutant at position 9
Nature of the assay: flow cytometry, phage on peptide-loaded T2 cells.
B3 returned an MFI of 131.
B4: the MFI stood at 5890.
B5 displayed an MFI of 94.7.
For B6, the MFI was 149.

The target of the next assay is T9, 017-mut7 peptide (…)/HLA-A*02:01 complex on T2 cells (human).
T9 construct: Alanine mutant at position 7
In words: flow cytometry, phage on peptide-loaded T2 cells.
Molecule B3 showed an MFI of 96.3.
On the same count and under the same terms, the result for B4 reads 96.4; that for B5, 97.8; that for B6, 98.9.

For a further assay, the target named is T10, 017-mut8 peptide (…)/HLA-A*02:01 complex on T2 cells (human).
T10 construct: Alanine mutant at position 8; also called TLI-A8
In words: flow cytometry, phage on peptide-loaded T2 cells.
Consider B3, for which the MFI came to 6400.
B4 yielded an MFI of 27500.
B5 returned an MFI of 3590.
B6 came in with an MFI of 12100.

The target in a further assay is T11, 017-mut3 peptide (…)/HLA-A*02:01 complex on T2 cells (human).
T11 construct: Alanine mutant at position 3
Nature of the assay: flow cytometry, phage on peptide-loaded T2 cells.
Molecule B3 had an MFI of 2260.
For B4, the MFI came to 13400.
For B5, the MFI was 741.
On to B6, for which the MFI was 5780.

The next assay has as its target T3, Foxp3-7 peptide/HLA-A*02:01 complex on …. Nature of the assay: flow cytometry, phage on peptide-loaded T2 cells.
As to B3, the MFI amounted to 21200.
On to B4, for which the MFI was found to be 39500.
The same measure, in the same setting: with B5 the figure was 23600.
On to B6, for which the MFI came out at 25800.

The target in another assay is T12, 017-mut1 peptide (…)/HLA-A*02:01 complex on T2 cells (human).
T12 construct: Alanine mutant of Foxp3-7 at position 1, pulsed onto T2 cells; also called EXT017-mut1
In words: flow cytometry, phage on peptide-loaded T2 cells.
B3 gave an MFI of 222.
B4 registered an MFI of 20100.
B5: the MFI is 7880.
As for B6, the MFI turned out to be 1100.

For another assay, the target named is T1, HLA-A*02:01 on T2 cells alone (no …). Nature of the assay: flow cytometry, phage on T2 cells, no peptide.
With B3, the MFI was 90.4.
The molecule B4 returned an MFI of 93.9.
As to B5, the MFI is 92.9.
In the case of B6, the MFI came out at 89.5.

The next assay addresses T3, Foxp3-7 peptide/HLA-A*02:01 complex on …. In words: flow cytometry, phage on T2 + Foxp3-7 peptide; secondary only 104, unstained 81.7.
Consider B3, for which the “Median:FITC-A” value was found to be 2820.
On the same count and under the same terms, the result for B4 reads 2790; that for B5, 2590.
Take B6: the “Median:FITC-A” value is 2700.

The target of another assay is T1, HLA-A*02:01 on T2 cells alone (no …). In words: flow cytometry, phage on T2 without peptide; secondary only 100, unstained 99.5.
For the molecule B1, the “Median:FITC-A” value turned out to be 146.
The same measure, in the same setting: the result for B5 reads 151; that for B2, 141.

The target of a further assay is T2, R3 (RHAMM-R3) peptide/HLA-A*02:01 …. In words: flow cytometry, phage on T2 + R3 peptide (as the table names the samples); secondary only 109, unstained 80.9.
In the case of B3, the “Median:FITC-A” value was determined as 123.
For B4, the “Median:FITC-A” value is 118.
Consider B5, for which the “Median:FITC-A” value is 124.
Same read-out and setting: the result for B6 reads 121.
